From article doi:10.1101/2025.09.10.675378 (bioRxiv, 2025)

B1: hDVL3 PDZ-IDR2-DEP (aa 243-496) (domain or fragment)
chain: MSLNIITVTLNMEKYNFLGISIVGQSNERGDGGIYIGSIMKGGAVAADGRIEPGDMLLQVNEINFENMSNDDAVRVLREIVHKPGPITLTVAKCWDPSPRGCFTLPRSEPIRPIDPAAWVSHTAAMTGTFPAYGMSPSLSTITSTSSSITSSIPDTERLDDFHLSIHSDMAAIVKAMASPESGLEVRDRMWLKITIPNAFIGSDVVDWLYHNVEGFTDRREARKYASNLLKAGFIRHTVNKITFSEQCYYIFGD
B2: phosphorylated hDVL3 PDZ-IDR2-DEP (PDZ-pIDR2-DEP, aa 243-496) (domain or fragment)
chain: B1 chain
modifications: 8-19 phosphates on S/T residues of IDR2 (native ESI-MS), added by CK1ε

Target: the molecule itself
Test: native MS

Protein	binding result
B1	binds
B2	binds
